Assay results from patent US20260132208A1 (DOMAIN THERAPEUTICS, published 2026).
“And” between values parts separate entries of the source, which are not always exact repeats. Equal entries are not always repeated. Values belong to the binder of their own block, whether it stands above or below them.

Columns and labels:
human CCR8 [1] = target: T1, human CCR8 (human, UniProt P51685 1-355); experiment: cell-based or functional assay
human CCR8 [2] = target: T1, human CCR8; experiment: cell-based or functional assay; remark: listed apart in the source
human CCR8 [3] = target: T1, human CCR8; experiment: flow cytometry, hCCR8-transfected CHO-K1 cells
Procedure: Briefly, 1.10⁵ cells per well in a 96 well plate were incubated with a dilution of unconjugated anti-CCR8 mAb at 10 μg/mL then diluted at 1/3.33, 4 dilution points (during 30 min at 4° C.). In human activated T cells model, prior to mAb incubation, cells were first incubated with 200 nM of hCCL1 (R&D Systems, Minneapolis, MN, USA) or buffer PBS (Invitrogen by Thermofisher Scientific, Illkirch-Graffenstaden, France) supplemented by 2% Fetal Bovine Serum (Invitrogen by Thermofisher Scientific, Illkirch-Graffenstaden, France) and 2 mM EDTA (Invitrogen by Thermofisher Scientific, Illkirch-Graffenstaden, France) during 1 hour at 4° C. To determine EC50 value, 8 concentrations of anti-CCR8 mAb were tested. Unbound antibodies were washed away with PBS (Invitrogen by Thermofisher Scientific, Illkirch-Graffenstaden, France) supplemented by 2% Fetal Bovine Serum (Invitrogen by Thermofisher Scientific, Illkirch-Graffenstaden, France) and 2 mM EDTA (Invitrogen by Thermofisher Scientific, Illkirch-Graffenstaden, France). Subsequently, cells are centrifuged (5 min at 400 g) and bound antibody is detected with F(ab′)2-Goat anti-Mouse IgG (H+L) Cross-Adsorbed Secondary Antibody, Alexa Fluor 488 (dilution 1/500) (Invitrogen by Thermofisher Scientific, Illkirch-Graffenstaden, France) or with F(ab′)₂-Goat anti-Human IgG Fc Secondary Antibody, PE (Invitrogen by Thermofisher Scientific, Illkirch-Graffenstaden, France) (dilution 1/1000) at 4° C. for 30 min. Detection reagent is washed away and cells are centrifuged (5 min at 400 g) and resuspended in 30 μL PBS. Bound detection antibody is quantified on a MacsQuant16 (Miltenyi, Gladbach, Germany) (B1 or B2 channel, 5000 events per acquisition). During the experiment, the respective isotype mAb controls (mouse IgG1, mouse IgG2a, mouse IgG2b, mouse IgG3 or human IgG1) (Biolegend, Amsterdam, The Netherlands) are included to exclude any unspecific binding events. EC50 values were determined via nonlinear fit “log (agonist) vs.response—Variable slope (four parameters)” function of Graphpad prism. EC50 values were not constantly determined in the same experiments.

pm3 = target: T2, pm3 (Y17 sulfated; Y15 and Y16 not sulfated); experiment: ELISA on coated peptide [cont.]
T2 construct: also called sulfated CCR8 N-terminal peptide pm3
T2 sequence (peptide, as listed by the source): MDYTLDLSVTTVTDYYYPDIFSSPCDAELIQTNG
Procedure: (§1) The specific binding properties of antibodies were evaluated by ELISA with coated CCR8 related peptides (500 ng/ml) in carbonate/bicarbonate buffer. Different peptides were used as described in Table 1 (see Example 1). Each anti-CCR8 mAb was tested at 1 μg/mL then diluted at 1/10. After an incubation at room temperature during 90 min, unbound mAbs were removed by washings. […] After washings, 3,3′,5,5′-tetramethylbenzidine (TMB) (Interchim, Montluçon, France) was added for 15 min. Then the optical density (OD) was determined by using a multiplate reader (Tecan, Lyon, France) and correlated with mAb reactivity on the panel of coated peptides.

pm5 = target: T3, pm5 (Y15 and Y17 sulfated; Y16 not sulfated); experiment: ELISA on coated peptide [cont.]
T3 construct: also called sulfated CCR8 N-terminal peptide pm5
T3 sequence (peptide, as listed by the source): as above
Procedure: as §1

pm8 = target: T4, pm8 (Y15, Y16 and Y17 sulfated); experiment: ELISA on coated peptide [cont.]
T4 construct: also called sulfated CCR8 N-terminal peptide pm8
T4 sequence (peptide, as listed by the source): as above
Procedure: as §1

pm6 = target: T5, pm6 (Y16 and Y17 sulfated; Y15 not sulfated); experiment: ELISA on coated peptide [cont.]
T5 construct: also called sulfated CCR8 N-terminal peptide pm6
T5 sequence (peptide, as listed by the source): as above
Procedure: as §1

human CCR8 [4] = target: T1, human CCR8; experiment: flow cytometry, inhibition of hCCL1-AF647 (10 nM) binding to hCCR8-CHO cells
Procedure: The hCCR8 transfected CHO cell line was dispatched at a density of 1.105 per well in a 96-well plate. Cells were incubated for 30 min at 4° C. with or without anti-CCR8 mAb tested at 10 μg/mL then diluted at 1/3. Unbound antibodies were washed away with PBS (Gibco, Villebon-sur-yvette, France) supplemented by 2% Fetal Bovine Serum (Invitrogen by Thermofisher Scientific, Illkirch-Graffenstaden, France) and 2 mM EDTA. […] After washing unbound ligands, CCL1 bound detection is quantified on a MacsQuant16 (Miltenyi, Gladbach, Germany) (R1 channel, 5 000 events per acquisition).
For IC₅₀ determination, a concentration response curve is performed using 8 concentrations of mAb. Curves are fitted and IC₅₀ of CCL1 binding blocking activity is calculated using the sigmoidal dose-response (variable slope) model on GraphPad Prism 9 (GraphPad Software, San Diego, CA, USA).

human CCR8 [5] = target: T1, human CCR8; experiment: cell-based or functional assay; remark: listed apart in the source
human CCR8 [6] = target: T1, human CCR8; experiment: cell-based or functional assay; remark: listed apart in the source
human CCR8 [7] = target: T1, human CCR8; experiment: cell-based or functional assay; remark: listed apart in the source

extrapolated top plateau of hCCL1 curve with 5 µg/mL mAb, protocol #3 (human CCR8 [1]): 2880 % of hCCL1 (100 nM)
IC50 of CCL1-induced hCCR8 Gi2 signaling (BRET, HEK-293) (human CCR8 [2]): 0.129 µg/mL and 0.86 nM
% positive cells (human CCR8 [3]): 76.2%
MFI fold change to isotype ctrl (human CCR8 [3]): 8.37 fold
binding result (pm3): binds
binding result (pm5): binds
binding result (pm8): binds
binding result (pm6): binds
IC50 (human CCR8 [4]): 0.72 µg/mL and 4.82 nM
residual hCCL1 (100 nM) Gi2 response, protocol #3, mAb 0.05 µg/mL (human CCR8 [5]): 102%
residual hCCL1 (100 nM) Gi2 response, protocol #3, mAb 0.5 µg/mL (human CCR8 [5]): 98%
residual hCCL1 (100 nM) Gi2 response, protocol #3, mAb 5 µg/mL (human CCR8 [5]): 84%
B1: anti-CCR8 mAb 1-11 (antibody, V domains shown)
VH: QVQLQQPGAELVKPGASVKMSCKATGYTFTGYNMHWVKQTPGQGLEWIGAISPGKGDTSYNLKFKGKATLTTDKSSSTAYMQLSSLTSADSAVYYCARSGGTPFAYWGQGTLVTVSA
VL: DVVMTQTPLSLPVSLGDQASISCRSSQSLVHSNGDTYLYWYLQKPGQSPKLLIYKVSNRFSGVPDRFSGSGSGTDFTLKINRVEAEDLGVYFCSQSTHVPYTFGGGTKLEIK
notes: Murine hybridoma mAb

extrapolated top plateau of hCCL1 curve with 5 µg/mL mAb, protocol #3 (human CCR8 [1]): 292 % of hCCL1 (100 nM)
IC50 of CCL1-induced hCCR8 Gi2 signaling (BRET), pH 6.5 (human CCR8 [6]): 0.162 µg/ml and 1.08 nM
IC50 of CCL1-induced hCCR8 Gi2 signaling (BRET), pH 7.4 (human CCR8 [6]): 0.152 µg/ml and 1.01 nM
IC50 of CCL1-induced hCCR8 Gi2 signaling (BRET, HEK-293) (human CCR8 [2]): 0.092 µg/mL and 0.616 nM
% positive cells (human CCR8 [3]): 34.7%
MFI fold change to isotype ctrl (human CCR8 [3]): 2.34 fold
IC50 (human CCR8 [4]): 6.41 µg/mL and 43 nM
residual hCCL1 (100 nM) Gi2 response, protocol #2, mAb 0.08 µg/mL (human CCR8 [5]): 97%
residual hCCL1 (100 nM) Gi2 response, protocol #2, mAb 0.4 µg/mL (human CCR8 [5]): 96%
residual hCCL1 (100 nM) Gi2 response, protocol #2, mAb 10 µg/mL (human CCR8 [5]): 84%
residual hCCL1 (100 nM) Gi2 response, protocol #3, mAb 0.05 µg/mL (human CCR8 [5]): 96%
residual hCCL1 (100 nM) Gi2 response, protocol #3, mAb 0.5 µg/mL (human CCR8 [5]): 81%
residual hCCL1 (100 nM) Gi2 response, protocol #3, mAb 5 µg/mL (human CCR8 [5]): 73%
B2: anti-CCR8 mAb 1-16 (antibody, V domains shown)
VH: EVQLQQSGPELVKPGASVKISCKASVYSFTGSYMHWVKQSHVKSLEWIGRINPYNGATSYNQNFKDKASLTVDKSSSTAYMELHSLTSEDSAVYYCATTLLRLLDYWGQGTTLTVSS
VL: DIVMTQAAFSNPVTLGTSASISCRSSKSLLHSNGITYLYWYLQKPGQSPQLLIYQMSNLASGVPDRFSSSGSGTDFTLRISRVEAEDVGVYYCAQNLELPWTFGGGTKLEIK
notes: Murine hybridoma mAb

ADCC % max lysis, HUT78 targets, NK donor 3 (human CCR8 [7]): 16%
ADCC % max lysis, HUT78 targets, NK donor 4 (human CCR8 [7]): 18%
ADCC EC50, HUT78 targets, NK donor 3 (human CCR8 [7]): 0.291 nM
ADCC EC50, HUT78 targets, NK donor 4 (human CCR8 [7]): 0.406 nM
B3: anti-CCR8 mAb 1-45 (antibody, human IgG1, kappa)
heavy: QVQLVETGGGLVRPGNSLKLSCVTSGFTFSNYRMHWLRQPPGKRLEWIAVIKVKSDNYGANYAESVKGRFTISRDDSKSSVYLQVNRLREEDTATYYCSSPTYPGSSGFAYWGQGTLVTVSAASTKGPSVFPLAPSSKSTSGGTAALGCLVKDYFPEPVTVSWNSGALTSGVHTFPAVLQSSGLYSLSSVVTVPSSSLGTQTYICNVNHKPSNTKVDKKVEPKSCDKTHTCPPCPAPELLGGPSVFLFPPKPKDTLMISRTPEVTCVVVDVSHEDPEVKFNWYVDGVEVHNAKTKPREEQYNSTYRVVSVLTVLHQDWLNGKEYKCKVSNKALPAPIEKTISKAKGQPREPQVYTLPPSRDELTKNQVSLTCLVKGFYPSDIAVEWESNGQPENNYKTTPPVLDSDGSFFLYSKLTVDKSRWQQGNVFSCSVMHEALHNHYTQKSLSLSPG
light: DIQMTQTTSSLSASLGDRVTISCRASQDISNYLNWYQQKPDGTVKLLIYYTSRLHSGVPSRFSGSGSGTDYSLTISNLEQEDIATYFCQQGNKFPPTFGGGTKLEINRTVAAPSVFIFPPSDEQLKSGTASVVCLLNNFYPREAKVQWKVDNALQSGNSQESVTEQDSKDSTYSLSSTLTLSKADYEKHKVYACEVTHQGLSSPVTKSFNRGEC

ADCC % max lysis, HUT78 targets, NK donor 3 (human CCR8 [7]): 25%
ADCC % max lysis, HUT78 targets, NK donor 4 (human CCR8 [7]): 30%
ADCC EC50, HUT78 targets, NK donor 3 (human CCR8 [7]): 0.00822 nM
ADCC EC50, HUT78 targets, NK donor 4 (human CCR8 [7]): 0.0489 nM
B4: anti-CCR8 mAb 1-48 (antibody, human IgG1, kappa)
heavy: QVQLVETGGGLVRPGNSLKLSCVTSGFTFSNYRMHWLRQPPGKRLEWIAVIKVKSDNYGANYAESVKGRFTISRDDSKSSVYLQVNRLREEDTATYYCSSPTYPGSSGFAYWGQGTLVTVSAASTKGPSVFPLAPSSKSTSGGTAALGCLVKDYFPEPVTVSWNSGALTSGVHTFPAVLQSSGLYSLSSVVTVPSSSLGTQTYICNVNHKPSNTKVDKKVEPKSCDKTHTCPPCPAPELLGGPDVFLFPPKPKDTLMISRTPEVTCVVVDVSHEDPEVKFNWYVDGVEVHNAKTKPREEQYNSTYRVVSVLTVLHQDWLNGKEYKCKVSNKALPLPEEKTISKAKGQPREPQVYTLPPSRDELTKNQVSLTCLVKGFYPSDIAVEWESNGQPENNYKTTPPVLDSDGSFFLYSKLTVDKSRWQQGNVFSCSVMHEALHNHYTQKSLSLSPG
light: B3 light
